B1: CD3hi anti-CD3 antibody (antibody, V domains shown)
VH: EVQLVESGGGLVQPGGSLKLSCAASGFTFNTYAMNWVRQASGKGLEWVGRIRSKYNNYATYYADSVKDRFTISRDDSKSTLYLQMNSLKTEDTAVYYCVRHGNFGNSYVSWFAYWGQGTLVTVSS
VL: QAVVTQEPSLTVSPGGTVTLTCRSSTGAVTTSNYANWVQQKPGQAPRGLIGGTNKRAPWTPARFSGSLLGDKAALTLSGAQPEDEAEYFCALWYSNLWVFGGGTKLTVL
B2: CD3lo anti-CD3 antibody (antibody, V domains shown)
VH: EVQLVESGGGLVQPGGSLKLSCAASGFTFNTYAMNWVRQASGKGLEWVGRIRSKYNNYATYYADSVKDRFTISRDDSKSTAYLQMNSLKTEDTAVYYCVRHGNFGNSYVSWFAYWGQGTLVTVSS
VL: QAVVTQEPSLTVSPGGTVTLTCRSSTGAVTTSNYANWVQQKPGQAPRGLIGGTNKRAPWTPARFSGSLLGDKAALTLSGAQPEDEAEYFCALWYSNLWVFGGGTKLTVL
B3: CD3med anti-CD3 antibody (antibody, V domains shown)
VH: EVQLVESGGGLVQPGGSLKLSCAASGFTFNTYAMNWVRQASGKGLEWVGRIRSKYNNYATYYADSVKDRFTISRDDSKNTAYLQMNSLKTEDTAVYYCVRHGNFGNSYVSWFAHWGQGTLVTVSS
VL: QAVVTQEPSLTVSPGGTVTLTCGSSTGAVTSSNYANWVQQKPGQAPRGLIGGTNKRAPWTPARFSGSLLGGKAALTLSGAQPEDEAEYYCALWYSNLWVFGGGTKLTVL

Each binder was assayed against CD3-Fc (assay: SPR (Biacore T200, 25 C); CD3-Fc captured on anti-hFc IgG1 CM5 chip, antibody injected in 1:2 dilution series; 1:1 binding model).
For B1, the Kd was 16 nM.
In the case of B2, the Kd is reported as 48 nM.
For B3, the Kd was 30 nM.
